Experiments:
[1] = target: T1, Integrin α2β1 on human chondrosarcoma cells (K9, K105) (human, UniProt P17301 30-1181; P05556 21-798); assay: adhesion of k105 cells to coated peptide, light microscopy; receptor as attributed in paragraph 163 and paragraph 181
T1 construct: whole, on cells; The cells are not engineered; also called integrin α2β1 receptor; β1 integrin

[2] = target: T1, Integrin α2β1 on human chondrosarcoma …; assay: adhesion of K9 cells to coated protein, 1 hour, N-acetylglucosaminidase read-out; receptor as attributed in paragraph 181
Protocol: To test cell binding, the chondrosarcoma cells or bovine chondrocytes were suspended in PBS containing 0.1% BSA, 25 U/ml collagenase and added to the wells (50,000/well), in the absence or presence of various peptide pools or the synthetic peptides (200, 100, 50, 25, 12.5 μg/ml). Non-adherent cells were removed after 1 hour and adhesion was determined by measuring lysosomal N-acetylglucosaminidase (12). Adhesion and spreading was visualized by light microscopy. In the time studies, k105 cells were allowed to adhere for 30 minutes, unbound cells were removed and medium without serum supplemented with or without peptides (250 μg/ml), β1 integrin antibody (clone P4C10, Gibco BRL), EDTA (5 mM) was added. Cell morphology was visualized by light microscopy after 1, 3 and 20 hours.
48-well tissue culture dishes were coated with 5 μg/ml collagen type II, tissue extracted bovine chondroadherin, human chondroadherin expressed in EBNA cells and human chondroadherin expressed in E. coli and blocked for non-specific binding with BSA. The cells were allowed to adhere for 1 hour at 37° C. Nonadherent cells were removed by washing and adhesion was determined by analyzing lysosomal N-acetylglucosaminidase. Adhesion is expressed in number of cells, 50,000 cells/well were seeded.

T1 sequence (P17301 30-1181, chain 1 of 2): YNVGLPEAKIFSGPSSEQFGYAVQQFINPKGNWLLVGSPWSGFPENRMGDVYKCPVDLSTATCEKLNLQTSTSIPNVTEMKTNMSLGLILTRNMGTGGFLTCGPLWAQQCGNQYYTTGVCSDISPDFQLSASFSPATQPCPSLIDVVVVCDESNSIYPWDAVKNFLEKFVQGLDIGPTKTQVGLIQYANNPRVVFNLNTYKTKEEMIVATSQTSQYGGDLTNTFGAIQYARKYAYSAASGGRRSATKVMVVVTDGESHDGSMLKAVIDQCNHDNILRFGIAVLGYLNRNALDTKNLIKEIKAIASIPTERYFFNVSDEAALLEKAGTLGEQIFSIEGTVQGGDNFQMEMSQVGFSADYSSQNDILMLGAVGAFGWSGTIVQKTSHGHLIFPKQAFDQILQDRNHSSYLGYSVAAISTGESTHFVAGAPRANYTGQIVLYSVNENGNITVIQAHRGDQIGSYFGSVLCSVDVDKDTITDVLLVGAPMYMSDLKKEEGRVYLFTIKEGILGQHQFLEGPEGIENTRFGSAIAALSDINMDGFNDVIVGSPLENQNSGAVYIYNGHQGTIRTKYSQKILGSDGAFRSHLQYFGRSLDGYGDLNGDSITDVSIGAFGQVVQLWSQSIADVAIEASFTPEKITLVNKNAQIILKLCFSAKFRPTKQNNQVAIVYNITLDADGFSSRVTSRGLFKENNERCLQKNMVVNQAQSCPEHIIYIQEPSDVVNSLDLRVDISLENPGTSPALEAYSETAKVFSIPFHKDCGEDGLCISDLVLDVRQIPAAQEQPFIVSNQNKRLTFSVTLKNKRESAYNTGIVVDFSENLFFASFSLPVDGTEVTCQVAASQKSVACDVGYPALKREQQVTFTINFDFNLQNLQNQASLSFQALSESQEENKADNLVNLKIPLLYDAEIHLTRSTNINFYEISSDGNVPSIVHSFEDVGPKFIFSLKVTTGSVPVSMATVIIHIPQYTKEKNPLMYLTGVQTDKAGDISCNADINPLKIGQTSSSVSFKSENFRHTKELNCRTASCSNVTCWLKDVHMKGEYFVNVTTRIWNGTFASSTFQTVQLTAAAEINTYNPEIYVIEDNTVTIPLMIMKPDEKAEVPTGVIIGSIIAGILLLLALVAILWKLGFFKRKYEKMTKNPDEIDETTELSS
T1 sequence (P05556 21-798, chain 2 of 2): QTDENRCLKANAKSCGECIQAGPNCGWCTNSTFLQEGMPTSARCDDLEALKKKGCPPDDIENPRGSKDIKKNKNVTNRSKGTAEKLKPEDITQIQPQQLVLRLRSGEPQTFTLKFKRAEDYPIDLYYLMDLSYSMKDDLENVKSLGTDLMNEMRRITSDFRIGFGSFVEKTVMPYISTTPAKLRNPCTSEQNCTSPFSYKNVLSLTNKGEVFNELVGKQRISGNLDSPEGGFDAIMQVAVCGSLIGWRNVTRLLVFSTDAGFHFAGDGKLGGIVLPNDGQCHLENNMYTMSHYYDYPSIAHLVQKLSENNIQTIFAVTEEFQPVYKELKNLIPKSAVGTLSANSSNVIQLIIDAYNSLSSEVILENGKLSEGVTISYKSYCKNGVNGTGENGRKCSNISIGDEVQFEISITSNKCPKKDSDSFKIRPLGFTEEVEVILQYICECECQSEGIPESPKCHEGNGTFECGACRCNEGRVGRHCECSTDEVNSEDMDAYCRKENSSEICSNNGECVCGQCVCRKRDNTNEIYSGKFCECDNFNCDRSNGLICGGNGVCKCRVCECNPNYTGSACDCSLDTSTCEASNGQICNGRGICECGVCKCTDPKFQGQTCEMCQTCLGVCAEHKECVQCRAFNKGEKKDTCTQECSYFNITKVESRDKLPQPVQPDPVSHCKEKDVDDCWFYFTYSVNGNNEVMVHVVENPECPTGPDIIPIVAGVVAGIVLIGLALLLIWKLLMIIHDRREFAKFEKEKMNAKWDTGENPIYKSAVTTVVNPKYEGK

binding result [1]	binding result [2]	Binder
binds	–	CQLRGLRRWLEAK (also called 12-mer peptide) [Synthetic peptide CQLRGLRRWLEAK (12-mer chondroadherin peptide plus an N-terminal cysteine)]
–	binds	Tissue extracted bovine chondroadherin (ligand, UniProt Q27972 25-361, looked up) CPQNCHCHSDLQHVICDKVGLQKIPKVSEKTKLLNLQRNNFPVLATNSFRAMPNLVSLHLQHCQIREVAAGAFRGLKQLIYLYLSHNDIRVLRAGAFDDLTELTYLYLDHNKVTELPRGLLSPLVNLFILQLNNNKIRELRSGAFQGAKDLRWLYLSENSLSSLQPGALDDVENLAKFYLDRNQLSSYPSAALSKLRVVEELKLSHNPLKSIPDNAFQSFGRYLETLWLDNTNLEKFSDGAFLGVTTLKHVHLENNRLHQLPSNFPFDSLETLTLTNNPWKCTCQLRGLRRWLEAKTSRPDATCASPAKFRGQHIRDTDAFRGCKFPTKRSKKAGRH
